According to PMC4561914 (Scientific Reports, 2015):

Target: the molecule itself
Assay: native MS; rBos d 2 in 10 mM ammonium acetate, pH 6.9; protein (monomer) concentration 0-90 μM; monomer-dimer ratio from ion intensities, fit of free monomer against total protein; dimer to monomers

B1: recombinant bovine dander lipocalin allergen Bos d 2 (natural protein, bovine (cow), UniProt Q28133 17-172, looked up)
chain: QETPAEIDPSKIPGEWRIIYAAADNKDKIVEGGPLRNYYRRIECINDCESLSITFYLKDQGTCLLLTEVAKRQEGYVYVLEFYGTNTLEVIHVSENMLVTYVENYDGERITKMTEGLAKGTSFTPEELEKYQQLNSERGVPNENIENLIKTDNCPP
modifications: a substantial amount of the molecules contained a pyrrolidone carboxylic acid (PCA) formed by cyclization of the N-terminal glutamine; partly oxidized, probably at a single methionine; two disulfide bonds
notes: Bos d 2, bovine (cow) dander lipocalin allergen; also called rBos d 2
Kd: 340 ± 20 µM
stoichiometry N: 2
